Laboratory results as given in US20160264649A1.

Tests used:
Assay in all cases: cell-based or functional assay
[1] = biological target: HIV-1 92RW008 Env (HIV-1)
[2] = biological target: HIV-1 Env of isolate 6535.3 (subtype B) (HIV-1)
[3] = biological target: HIV-1 Env of isolate 92UG024 (subtype D) (HIV-1)
[4] = biological target: HIV-1 Env of isolate 93IN905 (subtype C) (HIV-1)
[5] = biological target: HIV-1 Env of isolate 93MW959 (subtype C) (HIV-1)
[6] = biological target: HIV-1 Env of isolate 93WR029 (subtype A) (HIV-1)
[7] = biological target: HIV-1 Env of isolate 94UG103 (subtype A) (HIV-1)
[8] = biological target: HIV-1 Env of isolate JRCSF (subtype B) (HIV-1) (UniProt P20871)
[9] = biological target: HIV-1 Env of isolate MG RM-C-019 (subtype C) (HIV-1)
[10] = biological target: HIV-1 Env of isolate MG RM-C-022 (subtype C) (HIV-1)
[11] = biological target: HIV-1 Env of isolate MG RM-C-025 (subtype C) (HIV-1)
[12] = biological target: HIV-1 Env of isolate MG RM-C-026 (subtype C) (HIV-1)
[13] = biological target: HIV-1 Env of isolate MG RM-C-027 (subtype C) (HIV-1)
[14] = biological target: HIV-1 Env of isolate MGRM-AE-002 (subtype AE) (HIV-1)
[15] = biological target: HIV-1 Env of isolate MGRM-AE-004 (subtype AE) (HIV-1)
[16] = biological target: HIV-1 Env of isolate MGRM-AE-005 (subtype AE) (HIV-1)
[17] = biological target: HIV-1 Env of isolate MGRM-AE-006 (subtype AE) (HIV-1)
[18] = biological target: HIV-1 Env of isolate MGRM-AE-007 (subtype AE) (HIV-1)
[19] = biological target: HIV-1 Env of isolate MGRM-Chronic-B-002 (subtype B) (HIV-1)
[20] = biological target: HIV-1 Env of isolate MGRM-Chronic-B-004 (subtype B) (HIV-1)
[21] = biological target: HIV-1 Env of isolate MGRM-Chronic-B-010 (subtype B) (HIV-1)
[22] = biological target: HIV-1 Env of isolate MGRM-Chronic-B-012 (subtype B) (HIV-1)
[23] = biological target: HIV-1 Env of isolate MGRM-Chronic-B-024 (subtype B) (HIV-1)
[24] = biological target: HIV-1 Env of isolate MGRM-D-005 (subtype D) (HIV-1)
[25] = biological target: HIV-1 Env of isolate MGRM-D-011 (subtype D) (HIV-1)
[26] = biological target: HIV-1 Env of isolate MGRM-D-013 (subtype D) (HIV-1)
[27] = biological target: HIV-1 Env of isolate MGRM-D-014 (subtype D) (HIV-1)
[28] = biological target: HIV-1 Env of isolate MGRM-D-019 (subtype D) (HIV-1)
[29] = biological target: HIV-1 Env of isolate MGRM-D-020 (subtype D) (HIV-1)
[30] = biological target: HIV-1 Env of isolate MGRM-D-024 (subtype D) (HIV-1)
[31] = biological target: HIV-1 Env of isolate MGRM-F1-004 (subtype F) (HIV-1)
[32] = biological target: HIV-1 Env of isolate MGRM-F1-006 (subtype F) (HIV-1)
[33] = biological target: HIV-1 Env of isolate MGRM-F1-012 (subtype F) (HIV-1)
[34] = biological target: HIV-1 Env of isolate MGRM-F1-016 (subtype F) (HIV-1)
[35] = biological target: HIV-1 Env of isolate MGRM-F1-020 (subtype F) (HIV-1)
[36] = biological target: HIV-1 Env of isolate PVO.4 (subtype B) (HIV-1)
[37] = biological target: HIV-1 Env of isolate THR0.18 (subtype B) (HIV-1)
[38] = biological target: HIV-1 Env of isolate TRJ04551.58 (subtype B) (HIV-1)
[39] = biological target: HIV-1 Env of isolate TRO.11 (subtype B) (HIV-1)
[40] = biological target: HIV-1 Env of isolate VLGCA1 (subtype A) (HIV-1)
[41] = biological target: HIV-1 Env of pseudovirus isolate MGRM-G-006 (subtype G) (HIV-1)
[42] = biological target: HIV-1 Env of pseudovirus isolate MGRM-G-009 (subtype G) (HIV-1)
[43] = biological target: HIV-1 Env of pseudovirus isolate MGRM-G-011 (subtype G) (HIV-1)
[44] = biological target: HIV-1 Env of pseudovirus isolate MGRM-G-014 (subtype G) (HIV-1)
[45] = biological target: HIV-1 Env of pseudovirus isolate MGRM-G-016 (subtype G) (HIV-1)
[46] = biological target: HIV-1 Env of pseudovirus isolate MGRM-G-028 (subtype G) (HIV-1)

## 1496_C09 (PG9) (TCN-109) (antibody)
[1]
  IC50: 0.006 µg/mL
[2]
  IC50: 1.05 µg/mL
[3]
  IC50 (neutralization): 1.86 µg/mL
[4]
  IC50 (µg/mL), pseudovirus neutralization: 0.035 µg/mL
[5]
  IC50 (µg/mL), pseudovirus neutralization: 0.054 µg/mL
[6]
  IC50 (pseudovirus neutralization): 0.69 µg/mL
[7]
  IC50 (pseudovirus neutralization): 0.34 µg/mL
[8]
  IC50 (µg/mL), pseudovirus neutralization: 0.003 µg/mL
[9]
  IC50 (µg/mL), pseudovirus neutralization: 0.005 µg/mL
[10]
  IC50 (µg/mL), pseudovirus neutralization: 0.346 µg/mL
[11]
  IC50 (µg/mL), pseudovirus neutralization: 0.148 µg/mL
[12]
  IC50 (µg/mL), pseudovirus neutralization: 0.06 µg/mL
[13]
  IC50 (µg/mL), pseudovirus neutralization: 5.36 µg/mL
[14]
  IC50 (pseudovirus neutralization): 0.04 µg/mL
[15]
  IC50 (pseudovirus neutralization): 0.009 µg/mL
[16]
  IC50 (pseudovirus neutralization): 0.282 µg/mL
[17]
  IC50 (pseudovirus neutralization): 0.063 µg/mL
[18]
  IC50 (pseudovirus neutralization): 0.18 µg/mL
[19]
  IC50: 3.44 µg/mL
[20]
  IC50: 0.533 µg/mL
[21]
  IC50: 0.004 µg/mL
[22]
  IC50: 0.2 µg/mL
[23]
  IC50: 0.222 µg/mL
[24]
  IC50 (pseudovirus neutralization): 1.8 µg/mL
[25]
  IC50 (pseudovirus neutralization): 0.071 µg/mL
[26]
  IC50 (pseudovirus neutralization): 0.021 µg/mL
[27]
  IC50 (pseudovirus neutralization): 0.023 µg/mL
[28]
  IC50 (pseudovirus neutralization): 0.038 µg/mL
[29]
  IC50 (pseudovirus neutralization): 1.67 µg/mL
[30]
  IC50 (pseudovirus neutralization): 0.038 µg/mL
[31]
  IC50 (pseudovirus neutralization): 0.175 µg/mL
[32]
  IC50 (pseudovirus neutralization): 7.25 µg/mL
[33]
  IC50 (pseudovirus neutralization): 0.023 µg/mL
[34]
  IC50 (pseudovirus neutralization): 0.518 µg/mL
[35]
  IC50 (pseudovirus neutralization): 6.4 µg/mL
[36]
  IC50: 24.8 µg/mL
[37]
  IC50 (µg/mL), pseudovirus neutralization: 26.4 µg/mL
[38]
  IC50 (µg/mL), pseudovirus neutralization: 0.858 µg/mL
[39]
  IC50 (µg/mL), pseudovirus neutralization: 16.9 µg/mL
[40]
  IC50 (pseudovirus neutralization): 0.069 µg/mL
[41]
  IC50: 1.98 µg/mL
[42]
  IC50: 10.7 µg/mL
[43]
  IC50: 0.335 µg/mL
[44]
  IC50: 16.5 µg/mL
[45]
  IC50: 1.36 µg/mL
[46]
  IC50: 0.891 µg/mL

## PGV04 (antibody)
[1]
  IC50: 0.014 µg/mL
[2]
  IC50: 0.757 µg/mL
[3]
  IC50 (neutralization): 0.201 µg/mL
[4]
  IC50 (µg/mL), pseudovirus neutralization: 0.332 µg/mL
[5]
  IC50 (µg/mL), pseudovirus neutralization: > 50 µg/mL
[6]
  IC50 (pseudovirus neutralization): 0.54 µg/mL
[7]
  IC50 (pseudovirus neutralization): 0.202 µg/mL
[8]
  IC50 (µg/mL), pseudovirus neutralization: 0.078 µg/mL
[9]
  IC50 (µg/mL), pseudovirus neutralization: 9.63 µg/mL
[10]
  IC50 (µg/mL), pseudovirus neutralization: 18.3 µg/mL
[11]
  IC50 (µg/mL), pseudovirus neutralization: > 50 µg/mL
[12]
  IC50 (µg/mL), pseudovirus neutralization: 0.303 µg/mL
[13]
  IC50 (µg/mL), pseudovirus neutralization: 2.76 µg/mL
[14]
  IC50 (pseudovirus neutralization): 0.569 µg/mL
[15]
  IC50 (pseudovirus neutralization): 0.183 µg/mL
[16]
  IC50 (pseudovirus neutralization): 0.051 µg/mL
[17]
  IC50 (pseudovirus neutralization): > 50 µg/mL
[18]
  IC50 (pseudovirus neutralization): 5.75 µg/mL
[19]
  IC50: 0.142 µg/mL
[20]
  IC50: 0.047 µg/mL
[21]
  IC50: 0.744 µg/mL
[22]
  IC50: > 50 µg/mL
[23]
  IC50: 2.52 µg/mL
[24]
  IC50 (pseudovirus neutralization): > 50 µg/mL
[25]
  IC50 (pseudovirus neutralization): 0.025 µg/mL
[26]
  IC50 (pseudovirus neutralization): 0.088 µg/mL
[27]
  IC50 (pseudovirus neutralization): 0.194 µg/mL
[28]
  IC50 (pseudovirus neutralization): 0.35 µg/mL
[29]
  IC50 (pseudovirus neutralization): 0.097 µg/mL
[30]
  IC50 (pseudovirus neutralization): > 50 µg/mL
[31]
  IC50 (pseudovirus neutralization): 0.58 µg/mL
[32]
  IC50 (pseudovirus neutralization): > 50 µg/mL
[33]
  IC50 (pseudovirus neutralization): 0.25 µg/mL
[34]
  IC50 (pseudovirus neutralization): 0.268 µg/mL
[35]
  IC50 (pseudovirus neutralization): 5.99 µg/mL
[36]
  IC50: 0.454 µg/mL
[37]
  IC50 (µg/mL), pseudovirus neutralization: > 50 µg/mL
[38]
  IC50 (µg/mL), pseudovirus neutralization: 0.028 µg/mL
[39]
  IC50 (µg/mL), pseudovirus neutralization: 0.121 µg/mL
[40]
  IC50 (pseudovirus neutralization): 0.024 µg/mL
[41]
  IC50: 0.083 µg/mL
[42]
  IC50: 0.043 µg/mL
[43]
  IC50: 0.78 µg/mL
[44]
  IC50: 0.056 µg/mL
[45]
  IC50: 0.019 µg/mL
[46]
  IC50: 0.352 µg/mL

## VRC01 (antibody)
[1]
  IC50: 0.037 µg/mL
[2]
  IC50: 1.75 µg/mL
[3]
  IC50 (neutralization): 0.576 µg/mL
[4]
  IC50: 0.138 µg/mL
[5]
  IC50: 0.053 µg/mL
[6]
  IC50 (pseudovirus neutralization): 1.57 µg/mL
[7]
  IC50 (pseudovirus neutralization): 0.285 µg/mL
[8]
  IC50: 0.164 µg/mL
[9]
  IC50: 1.13 µg/mL
[10]
  IC50: 13 µg/mL
[11]
  IC50: 2.36 µg/mL
[12]
  IC50: 0.707 µg/mL
[13]
  IC50: 0.125 µg/mL
[14]
  IC50 (pseudovirus neutralization): 0.217 µg/mL
[15]
  IC50 (pseudovirus neutralization): 0.187 µg/mL
[16]
  IC50 (pseudovirus neutralization): 0.029 µg/mL
[17]
  IC50 (pseudovirus neutralization): 4.65 µg/mL
[18]
  IC50 (pseudovirus neutralization): 0.835 µg/mL
[19]
  IC50: 0.117 µg/mL
[20]
  IC50: 0.055 µg/mL
[21]
  IC50: 0.156 µg/mL
[22]
  IC50: 1.03 µg/mL
[23]
  IC50: 0.377 µg/mL
[24]
  IC50 (pseudovirus neutralization): > 50 µg/mL
[25]
  IC50 (pseudovirus neutralization): 0.075 µg/mL
[26]
  IC50 (pseudovirus neutralization): 0.087 µg/mL
[27]
  IC50 (pseudovirus neutralization): 0.332 µg/mL
[28]
  IC50 (pseudovirus neutralization): 0.119 µg/mL
[29]
  IC50 (pseudovirus neutralization): 0.192 µg/mL
[30]
  IC50 (pseudovirus neutralization): 0.366 µg/mL
[31]
  IC50 (pseudovirus neutralization): 0.305 µg/mL
[32]
  IC50 (pseudovirus neutralization): 2.86 µg/mL
[33]
  IC50 (pseudovirus neutralization): 0.488 µg/mL
[34]
  IC50 (pseudovirus neutralization): 0.517 µg/mL
[35]
  IC50 (pseudovirus neutralization): 1.89 µg/mL
[36]
  IC50: 0.218 µg/mL
[37]
  IC50: 2.46 µg/mL
[38]
  IC50: 0.06 µg/mL
[39]
  IC50: 0.186 µg/mL
[40]
  IC50 (pseudovirus neutralization): 0.163 µg/mL
[41]
  IC50: 0.055 µg/mL
[42]
  IC50: 0.073 µg/mL
[43]
  IC50: 0.065 µg/mL
[44]
  IC50: 0.056 µg/mL
[45]
  IC50: 0.063 µg/mL
[46]
  IC50: 0.164 µg/mL
